Assay results taken from PMC4760772, “The Development of a Recombinant scFv Monoclonal Antibody Targeting Canine CD20 for Use in Comparative Medicine” (PLoS ONE, 2016).

T1: biotinylated canine CD20 peptide (biotin-SGSGNCDPANPSEKNSLSIQYCGS) (canine, biotin on the N-terminus)
T1 peptide: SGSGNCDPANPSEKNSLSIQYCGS

T2: fluorescein-labeled peptide corresponding to human CD20 (NCEPANPSEKNSPSTQYCYS) (Homo sapiens (Human)., fluorescein (FITC) label, position not stated)
T2 construct: also called FITC tagged human CD20 peptide; fluorescent human CD20 peptide
T2 chain: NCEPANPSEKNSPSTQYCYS

T3: biotinylated canine CD20 peptide (biotin-SGSGNCDPANPSEKNSLSIQYCGS) (Canis lupus familiaris, biotin on the N-terminus)
T3 construct: spacer between the biotin and the CD20 stretch; also called biotinylated CD20 peptide
T3 chain: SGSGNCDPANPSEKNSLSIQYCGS

B1: scFv-3 secreted from CHO cells (scFv, V domains shown)
VH: EVNVVESGGGLVQPGDSLRLSCATSGFTFTDYFMSWVRQPPGKSLEWLGLIRNKVNGYTAEYSASVKGRFTISRDNSRGILYLQMYTLRAEDSATYYCVRASTGTSFVYWGQGTLVTVSA
VL: DIVMTQPPAIMSASPGEKVTMTCSASSSVSYMHWYQQKSGTSPKRWIYDTSKLASGVPDRFSSSGSGTDFTLRISRVEAEDVGVYYCAQNLELPFTFGGGTKLEIK
notes: VL of scFv-3, as in m9; linker, as in m9; VH of scFv-3, as in m9; Cloned into the KpnI-EcoRI sites of pCDNA3.1; also called scFv-3 supernatant
B2: scFv-7 secreted from CHO cells (scFv, V domains shown)
VH: EVQGVESGGGLVQPGDSLRLSCATSGFTFTDYFMSWVRQPPGKSLEWLGLIRNKVNGYTAEYSASVKGRFTISRDNSRGILYLQMYTLRAEDSATYYCVRASTGTSFVYWGQGTLVTVSA
VL: IVMTQAAAFSNPVTLGTSVSISCRSSKSLLHRGFTYLYWYLQRPGQSPQLLIYQMSNLASGVPDRFSSSGSGTDFTLRISRVEAEDVGVYYCAQNLELPFTFGGGTKLELK
notes: VL of scFv-7, as in m10; linker, as in m10; VH of scFv-7, as in m10; Cloned into the KpnI-EcoRI sites of pCDNA3.1; also called scFv-7 supernatant
B3: monoclonal antibody NCD1.2 (antibody, V domains shown)
VH: VESGGGLVQPGDSLRLSCATSGFTFTDYFMSWVRQPPGKSLEWLGLIRNKVNGYTAEYSASVKGRFTISRDNSRGILYLQMYTLRAEDSATYYCVRASTGTSFVYWGQGTLVTVSA
VL: AAAFSNPVTLGTSVSISCRSSKSLLHRNGFTYLYWYLQRPGQSPQLLIYQMSNLASGVPDRFSSSGSGTDFTLRISRVEAEDVGVYYCAQNLELPFTFGGGTKLELK
notes: VH cloned from the NCD1.2 hybridoma, as the VH of m9 and m10 (scFv-3 and scFv-7; identical VH genes, identical CDRs); the first residues of the cloned VH come from degenerate PCR primers; constant region of a mouse IgG; VL as the VL of m9 (scFv-3) or of m10 (scFv-7); both light chain mRNAs are made by the hybridoma; mouse light chain constant region; not described; IgG; also called NCD1.2 MAB; …

Assays:
[1] = biological target: T4, bacterially expressed his-tagged canine CD20 protein (amino acids 140–190) (Canis lupus familiaris, UniProt Q3C2E2); assay: ELISA; CHO supernatants (diluted 1:40 or 1:80) on His-tagged CD20 protein or on biotinylated CD20 peptide; detected with peroxidase conjugated protein A, TMB, OD 450 nm; conditions: one partner purified
T4 construct: canine CD20, amino acids 140-190 comprising the extracellular domain; also called recombinant canine CD20 protein; His-tagged CD20 protein; source: bacterially expressed, purified by nickel chromatography
T4 sequence (Q3C2E2 140-190): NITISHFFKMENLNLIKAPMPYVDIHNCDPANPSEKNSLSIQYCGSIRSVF

[2] = biological target: T5, canine CD20 protein in clinically-derived canine cells and tissue (Canis lupus familiaris (Dog) (Canis …, UniProt Q3C2E2)); assay: immunostaining of cells or tissue; immunohistochemistry on formalin fixed paraffin embedded canine lymphoma tissue (tissue micro array), heat induced antigen retrieval; conditions: one partner purified
T5 construct: canine CD20 on normal B cells and B-cell lymphoma cells of dogs; also called membranous CD20; CD20 in canine tissue
T5 sequence (Q3C2E2 whole entry): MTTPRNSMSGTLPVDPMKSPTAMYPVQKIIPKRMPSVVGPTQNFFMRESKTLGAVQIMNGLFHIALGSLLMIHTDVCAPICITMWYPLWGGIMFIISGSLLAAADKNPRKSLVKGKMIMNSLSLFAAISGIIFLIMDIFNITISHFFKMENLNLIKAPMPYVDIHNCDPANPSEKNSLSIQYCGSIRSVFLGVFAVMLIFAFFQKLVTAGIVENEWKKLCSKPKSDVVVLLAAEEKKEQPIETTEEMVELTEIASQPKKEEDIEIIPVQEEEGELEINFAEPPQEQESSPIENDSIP

[3] = biological target: T1, biotinylated canine CD20 peptide …; assay: BLI; without DTT
[4] = biological target: T2, fluorescein-labeled peptide …; assay: fluorescence polarisation; antibody titrated against 30 nM fluorescein-labeled human CD20 peptide in PBS, 0.05% Tween-20; 1 hr at room temperature, read at 21°C; purified mouse immunoglobulins subtracted as nonspecific binding; conditions: both partners purified
[5] = biological target: T4, bacterially expressed his-tagged canine …; assay: immunoblot; purified his-tagged canine CD20 (140-190) after electrophoresis without and with DTT, blotted with NCD1.2; conditions: both partners purified
[6] = biological target: T3, biotinylated canine CD20 peptide …; assay: BLI; Octet RED, as a1 but in the presence of DTT; relative Kd; conditions: both partners purified
[7] = biological target: T3, biotinylated canine CD20 peptide …; assay: BLI; Octet RED, biotinylated CD20 peptide on streptavidin biosensors, antibody 32 nM to 0.5 nM in solution, 30°C, PBS pH 7.4 with 0.02% Tween 20, 0.005% sodium azide, 100 μg/mL BSA; global fit 1:1; relative Kd; absence of DTT; conditions: both partners purified
[8] = biological target: T6, endogenous canine CD20 protein in 3132 canine lymphoma cells (Canis lupus familiaris (Dog) (Canis …, UniProt Q3C2E2)); assay: immunoblot; lysates or chemical fractions of 3132 canine lymphoma cells, and lysates of H1299 cells transfected with human GFP-CD20, blotted with NCD1.2; conditions: one partner purified
T6 construct: canine CD20, endogenous protein; also called authentic canine CD20 protein
T6 sequence (Q3C2E2 whole entry): as above

[9] = biological target: T1, biotinylated canine CD20 peptide …; assay: BLI; with DTT

Binder	binding result [1]	binding result [2]	koff [3]	binding result [4]	binding result [5]	Kd [6]	Kd [7]	binding result [8]	koff [9]
B1	binds								
B2	binds								
B3		binds	3.19e-05 s⁻¹	binds	binds	310 pM	340 pM	binds	3.41e-05 s⁻¹
